Test results as given in US20140356383A1 (published 2014).

What was measured:
[1] = target: T1, human guanylyl cyclase C (GCC) (human, UniProt P25092 24-1073); assay: flow cytometry, 293 GCC #2 cells, 0.001 µg/ml
T1 construct: also called hGCC; STAR

[2] = target: T1, human guanylyl cyclase C (GCC); assay: flow cytometry, 293 GCC #2 cells, 0.25 µg/ml
[3] = target: T1, human guanylyl cyclase C (GCC); assay: flow cytometry, 293 GCC #2 cells, 0.016 µg/ml
[4] = target: T1, human guanylyl cyclase C (GCC); assay: flow cytometry, 293 GCC #2 cells, 0.063 µg/ml
[5] = target: T1, human guanylyl cyclase C (GCC); assay: cell-based or functional assay
[6] = target: T1, human guanylyl cyclase C (GCC); assay: flow cytometry, 293 GCC #2 cells, 1 µg/ml
[7] = target: T1, human guanylyl cyclase C (GCC); assay: flow cytometry, 293 GCC #2 cells, 0.004 µg/ml
[8] = target: T2, TOK107-hIg (hGCC-ECD/hIgG1 Fc) (human); assay: ELISA against TOK107-hIg; antibody concentration for half maximal binding
T2 construct: Expressed in HEK293 cells; also called TOK107-hIgG; TOK107-Ig

[9] = target: T2, TOK107-hIg (hGCC-ECD/hIgG1 Fc); assay: SPR, BIACORE T100, 22 C; Prep B (reference) 5F9 immobilized on CM4 chip, GCC-ECD-Fc injected; 1:1 model; replicate H
[10] = target: T2, TOK107-hIg (hGCC-ECD/hIgG1 Fc); assay: SPR, BIACORE T100, 22 C; Prep A 5F9 immobilized on CM4 chip, GCC-ECD-Fc injected; 1:1 model; replicate D
[11] = target: T1, human guanylyl cyclase C (GCC); assay: FACS with GCC-expressing cells (cell line not given); antibody concentration for half maximal binding
[12] = target: T2, TOK107-hIg (hGCC-ECD/hIgG1 Fc); assay: SPR, BIACORE T100, 22 C; Prep A 5F9 immobilized on CM4 chip, GCC-ECD-Fc injected; 1:1 model; replicate E
[13] = target: T2, TOK107-hIg (hGCC-ECD/hIgG1 Fc); assay: SPR, BIACORE T100, 22 C; Prep A 5F9 immobilized on CM4 chip, GCC-ECD-Fc injected; 1:1 model; replicate A
[14] = target: T2, TOK107-hIg (hGCC-ECD/hIgG1 Fc); assay: SPR, BIACORE T100, 22 C; Prep B (reference) 5F9 immobilized on CM4 chip, GCC-ECD-Fc injected; 1:1 model; replicate I
[15] = target: T2, TOK107-hIg (hGCC-ECD/hIgG1 Fc); assay: SPR, BIACORE T100, 22 C; Prep A 5F9 immobilized on CM4 chip, GCC-ECD-Fc injected; 1:1 model; replicate B
[16] = target: T2, TOK107-hIg (hGCC-ECD/hIgG1 Fc); assay: SPR, BIACORE T100, 22 C; Prep A 5F9 immobilized, GCC-ECD-Fc injected; average of replicates A-E (95% confidence interval in brackets)
[17] = target: T2, TOK107-hIg (hGCC-ECD/hIgG1 Fc); assay: SPR, BIACORE T100, 22 C; Prep A 5F9 immobilized on CM4 chip, GCC-ECD-Fc injected; 1:1 model; replicate C
[18] = target: T2, TOK107-hIg (hGCC-ECD/hIgG1 Fc); assay: SPR, BIACORE T100, 22 C; Prep B (reference) 5F9 immobilized on CM4 chip, GCC-ECD-Fc injected; 1:1 model; replicate F
[19] = target: T2, TOK107-hIg (hGCC-ECD/hIgG1 Fc); assay: SPR, BIACORE T100, 22 C; Prep B (reference) 5F9 immobilized on CM4 chip, GCC-ECD-Fc injected; 1:1 model; replicate G
[20] = target: T2, TOK107-hIg (hGCC-ECD/hIgG1 Fc); assay: SPR, BIACORE T100, 22 C; Prep B (reference) 5F9 immobilized, GCC-ECD-Fc injected; average of replicates F-I (95% confidence interval in brackets)

T1 sequence (P25092 24-1073 limits assumed): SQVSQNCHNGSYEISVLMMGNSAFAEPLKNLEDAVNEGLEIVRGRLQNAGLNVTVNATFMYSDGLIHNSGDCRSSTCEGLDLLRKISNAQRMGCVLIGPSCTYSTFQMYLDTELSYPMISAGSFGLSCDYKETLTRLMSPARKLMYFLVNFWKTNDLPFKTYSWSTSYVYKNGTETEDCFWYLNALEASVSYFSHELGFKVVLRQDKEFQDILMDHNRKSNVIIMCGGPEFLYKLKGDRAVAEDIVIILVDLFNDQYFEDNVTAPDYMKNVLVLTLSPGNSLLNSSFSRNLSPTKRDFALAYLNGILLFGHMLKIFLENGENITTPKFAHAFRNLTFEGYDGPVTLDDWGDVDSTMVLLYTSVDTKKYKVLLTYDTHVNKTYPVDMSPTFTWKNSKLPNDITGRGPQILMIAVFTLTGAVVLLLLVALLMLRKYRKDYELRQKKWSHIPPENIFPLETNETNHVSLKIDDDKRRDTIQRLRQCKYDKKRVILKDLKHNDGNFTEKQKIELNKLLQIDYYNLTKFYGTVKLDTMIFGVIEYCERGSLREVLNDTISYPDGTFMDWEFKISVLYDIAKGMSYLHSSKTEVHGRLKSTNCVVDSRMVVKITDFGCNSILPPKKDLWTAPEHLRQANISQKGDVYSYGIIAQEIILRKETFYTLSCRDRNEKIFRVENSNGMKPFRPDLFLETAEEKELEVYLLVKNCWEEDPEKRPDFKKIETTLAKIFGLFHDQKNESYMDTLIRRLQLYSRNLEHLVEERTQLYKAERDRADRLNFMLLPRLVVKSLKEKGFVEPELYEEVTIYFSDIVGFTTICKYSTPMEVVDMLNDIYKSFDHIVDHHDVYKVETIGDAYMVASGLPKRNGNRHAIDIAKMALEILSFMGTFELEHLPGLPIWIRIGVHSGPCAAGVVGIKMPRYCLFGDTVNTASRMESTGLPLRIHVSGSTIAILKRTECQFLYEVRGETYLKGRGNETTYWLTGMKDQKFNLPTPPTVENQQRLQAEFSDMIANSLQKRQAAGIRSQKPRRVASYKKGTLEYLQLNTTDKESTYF
T2 sequence (chain, as listed by the source limits assumed): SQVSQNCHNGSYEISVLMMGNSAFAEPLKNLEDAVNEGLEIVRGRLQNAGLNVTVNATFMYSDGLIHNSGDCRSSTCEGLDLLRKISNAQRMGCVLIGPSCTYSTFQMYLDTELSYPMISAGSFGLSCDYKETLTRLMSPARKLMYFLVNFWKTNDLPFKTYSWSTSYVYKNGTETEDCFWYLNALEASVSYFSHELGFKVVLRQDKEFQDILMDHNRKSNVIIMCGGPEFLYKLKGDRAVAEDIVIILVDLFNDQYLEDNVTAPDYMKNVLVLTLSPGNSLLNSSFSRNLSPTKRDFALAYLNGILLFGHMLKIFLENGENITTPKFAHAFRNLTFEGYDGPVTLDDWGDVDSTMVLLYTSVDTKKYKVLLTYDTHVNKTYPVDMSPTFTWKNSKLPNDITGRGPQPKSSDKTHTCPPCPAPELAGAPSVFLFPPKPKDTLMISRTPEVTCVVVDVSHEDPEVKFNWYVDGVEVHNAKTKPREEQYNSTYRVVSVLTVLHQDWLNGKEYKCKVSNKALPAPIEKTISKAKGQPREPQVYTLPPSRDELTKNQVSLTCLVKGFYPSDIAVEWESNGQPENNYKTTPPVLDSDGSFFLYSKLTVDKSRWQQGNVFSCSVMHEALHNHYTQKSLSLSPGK

B1: 5F9 vcMMAE immunoconjugate (antibody, V domains shown)
VH: QVQLQQWGAGLLKPSETLSLTCAVFGGSFSGYYWSWIRQPPGKGLEWIGEINHRGNTNDNPSLKSRVTISVDTSKNQFALKLSSVTAADTAVYYCARERGYTYGNFDHWGQGTLVTVSS
VL: EIVMTQSPATLSVSPGERATLSCRASQSVSRNLAWYQQKPGQAPRLLIYGASTRATGIPARFSGSGSGTEFTLTIGSLQSEDFAVYYCQQYKTWPRTFGQGTNVEIK
modifications: mc-vc-MMAE linked to cysteines freed by partial reduction of interchain disulfides (outside this variable domain); average drug loading about 4 (3.6 in the described preparation)
notes: also called MLN0264; ML0264
MFI [1]: 445 | MFI [2]: 7300 | MFI [3]: 1790 | MFI [4]: 4850 | LD 50 (nM), direct cytotoxicity, CT 26 GCC #2.5 cells [5]: > 500 nM | LD 50 (nM), direct cytotoxicity, CT 26 GCC #32 cells [5]: 267 nM | LD 50 (nM), direct cytotoxicity, HT 29 GCC #2 cells [5]: 24.1 nM | LD 50 (nM), direct cytotoxicity, HT 29 GCC #5 cells [5]: 654 nM | LD 50 (nM), direct cytotoxicity, HT 29 GCC #18 cells [5]: 555 nM | LD 50 (nM), direct cytotoxicity, HT29 GCC#5 cells [5]: 0.59 nM | MFI [6]: 7420 | MFI [7]: 696

B2: anti-GCC human monoclonal antibody 5F9 (antibody, V domains shown)
VH: QVQLQQWGAGLLKPSETLSLTCAVFGGSFSGYYWSWIRQPPGKGLEWIGEINHRGNTNDNPSLKSRVTISVDTSKNQFALKLSSVTAADTAVYYCARERGYTYGNFDHWGQGTLVTVSS
VL: EIVMTQSPATLSVSPGERATLSCRASQSVSRNLAWYQQKPGQAPRLLIYGASTRATGIPARFSGSGSGTEFTLTIGSLQSEDFAVYYCQQYKTWPRTFGQGTNVEIK
notes: also called mAb 5F9; MAb 5F9 (Prep A)
EC50 [8]: 36.5 nM | MFI [1]: 500 | Kd [9]: 0.105 nM | koff [9]: 9.57e-06 s⁻¹ | kon [9]: 90900 M⁻¹ s⁻¹ | MFI [2]: 7820 | MFI [3]: 2460 | Kd [10]: 0.091 nM | koff [10]: 1.11e-05 s⁻¹ | kon [10]: 122000 M⁻¹ s⁻¹ | EC50 [11]: 1.24 nM | Kd [12]: 0.184 nM | koff [12]: 1.77e-05 s⁻¹ | kon [12]: 96400 M⁻¹ s⁻¹ | Kd [13]: 0.112 nM | koff [13]: 1.19e-05 s⁻¹ | kon [13]: 106000 M⁻¹ s⁻¹ | Kd [14]: 0.127 nM | koff [14]: 1.54e-05 s⁻¹ | kon [14]: 121000 M⁻¹ s⁻¹ | Kd [15]: 0.0917 nM | koff [15]: 1.1e-05 s⁻¹ | kon [15]: 120000 M⁻¹ s⁻¹ | Kd [16]: 0.136 nM | koff [16]: 1.46e-05 s⁻¹ | kon [16]: 110000 M⁻¹ s⁻¹ | MFI [4]: 6620 | Kd [17]: 0.201 nM | koff [17]: 2.15e-05 s⁻¹ | kon [17]: 107000 M⁻¹ s⁻¹ | MFI [6]: 8030 | Kd [18]: 0.0789 nM | koff [18]: 7.64e-06 s⁻¹ | kon [18]: 96800 M⁻¹ s⁻¹ | Kd [19]: 0.103 nM | koff [19]: 1.24e-05 s⁻¹ | kon [19]: 120000 M⁻¹ s⁻¹ | MFI [7]: 937 | Kd [20]: 0.103 nM | koff [20]: 1.13e-05 s⁻¹ | kon [20]: 107000 M⁻¹ s⁻¹

B3: 5F9-vc-MMAF (antibody, V domains shown)
VH: QVQLQQWGAGLLKPSETLSLTCAVFGGSFSGYYWSWIRQPPGKGLEWIGEINHRGNTNDNPSLKSRVTISVDTSKNQFALKLSSVTAADTAVYYCARERGYTYGNFDHWGQGTLVTVSS
VL: EIVMTQSPATLSVSPGERATLSCRASQSVSRNLAWYQQKPGQAPRLLIYGASTRATGIPARFSGSGSGTEFTLTIGSLQSEDFAVYYCQQYKTWPRTFGQGTNVEIK
modifications: mc-vc-MMAF linked to cysteines freed by partial reduction of interchain disulfides (outside this variable domain); average drug loading about four
MFI [1]: 440 | MFI [2]: 7560 | MFI [3]: 1500 | MFI [4]: 4830 | LD 50 (nM), direct cytotoxicity, CT 26 GCC #2.5 cells [5]: > 10 nM | LD 50 (nM), direct cytotoxicity, CT 26 GCC #32 cells [5]: 0.004 nM | LD 50 (nM), direct cytotoxicity, HT 29 GCC #2 cells [5]: 0.127 nM | LD 50 (nM), direct cytotoxicity, HT 29 GCC #5 cells [5]: 563 nM | LD 50 (nM), direct cytotoxicity, HT 29 GCC #18 cells [5]: > 10000 nM | MFI [6]: 7780 | MFI [7]: 707

B4: 5F9-mc-MMAF (antibody, V domains shown)
VH: QVQLQQWGAGLLKPSETLSLTCAVFGGSFSGYYWSWIRQPPGKGLEWIGEINHRGNTNDNPSLKSRVTISVDTSKNQFALKLSSVTAADTAVYYCARERGYTYGNFDHWGQGTLVTVSS
VL: EIVMTQSPATLSVSPGERATLSCRASQSVSRNLAWYQQKPGQAPRLLIYGASTRATGIPARFSGSGSGTEFTLTIGSLQSEDFAVYYCQQYKTWPRTFGQGTNVEIK
modifications: mc-MMAF (non-cleavable linker) linked to cysteines freed by partial reduction of interchain disulfides (outside this variable domain); average drug loading about four
MFI [1]: 483 | MFI [2]: 7400 | MFI [3]: 2110 | MFI [4]: 5350 | LD 50 (nM), direct cytotoxicity, CT 26 GCC #2.5 cells [5]: > 10 nM | LD 50 (nM), direct cytotoxicity, CT 26 GCC #32 cells [5]: 0.064 nM | LD 50 (nM), direct cytotoxicity, HT 29 GCC #2 cells [5]: 3.1 nM | LD 50 (nM), direct cytotoxicity, HT 29 GCC #5 cells [5]: > 10000 nM | LD 50 (nM), direct cytotoxicity, HT 29 GCC #18 cells [5]: > 10000 nM | LD 50 (nM), direct cytotoxicity, HT29 GCC#5 cells [5]: > 10 nM | MFI [6]: 7580 | MFI [7]: 776
